Data on 2 substances can be found in patent US20230346934A1.

Bounds are passed on as bounds.

For this experiment, the target named is PDL1 on DMS 273-PDL1 target cells (UniProt Q9NZQ7). The experiment in a line: cell-based or functional assay.
Sequence of UniProt Q9NZQ7 (Q9NZQ7 19-290 limits assumed): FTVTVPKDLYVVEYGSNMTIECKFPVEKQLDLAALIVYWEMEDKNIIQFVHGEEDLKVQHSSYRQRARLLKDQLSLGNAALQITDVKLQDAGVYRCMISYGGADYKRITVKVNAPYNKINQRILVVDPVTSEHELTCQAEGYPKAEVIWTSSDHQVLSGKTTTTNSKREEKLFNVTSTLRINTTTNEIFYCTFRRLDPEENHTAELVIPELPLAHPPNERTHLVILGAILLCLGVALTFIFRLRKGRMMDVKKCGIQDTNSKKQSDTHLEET

The substance WT PD1.CD28 chimeric switch receptor yielded a cytokine secretion (IL-2, IFNγ; Meso Scale Discovery) of more than 10 fold.
The substance HA PD1.CD28 chimeric switch receptor registered a cytokine secretion (IL-2, IFNγ; Meso Scale Discovery) of more than 10 fold.
